Legend:
[1] = tested on: Spycatcher-WELQ-LSSmOrange fusion protein
[2] = biological target: Spycatcher-WELQ-Tem1 fusion protein (Spycatcher followed by a SplB protease site with a P1' methionine and the lactamase Tem1) (UniProt P62593)

Substance: SplB protease fused to Spytag
- cleavage of the fusion protein to native LSSmOrange (gel, FIG. 4) [1]: A similar experiment with LSSmOrange replacing Tem1 yielded the same result
- cleavage of the fusion protein to native Tem1 (gel, FIG. 3) [2]: this led to the cleavage of Tem1 at the first methionine
